Results from patent US20070105152.

Tests used:
[1] = target: T1, Me2Arg-Pro-AcLys-Gln-Phe (SIRT1 library hit, on bead)
T1 chain: RPKQFXXRM

[2] = target: T2, Me2Arg/Pro-Me2Arg/Pro-AcLys-Ser-Ile (SIRT1 library hit, on bead)
T2 chain: RPKSIXXRM

[3] = target: T3, Me2Arg/Trp-Me2Arg/Trp-AcLys-Ile-Thr (SIRT1 library hit, on bead)
T3 chain: RWKITXXRM

Me2RP(AcK)QF = target: T4, Me2RP(AcK)QF
T4 chain: RPKQF

Me2RP(AcK)SI = target: T5, Me2RP(AcK)SI
T5 chain: RPKSI

NH(AcK)II = target: T6, NH(AcK)II
T6 chain: NHKII

[4] = target: T7, Nle-Nle-AcLys-Gln-Gln (SIRT1 library hit, on bead)
T7 chain: MMKQQXXRM

[5] = target: T8, Phe-Glu-AcLys-Tyr-Me2Arg (SIRT1 library hit, on bead)
T8 chain: FEKYRXXRM

[6] = target: T9, Pro-Gly-AcLys-Leu-Tyr (SIRT1 library hit, on bead)
T9 chain: PGKLYXXRM

[7] = target: T10, Pro-Ile-AcLys-Glu-Gln (SIRT1 library hit, on bead)
T10 chain: PIKEQXXRM

[8] = target: T11, Pro/Trp-Pro/Trp-AcLys-Ile-Thr (SIRT1 library hit, on bead)
T11 chain: WPKITXXRM

QNle(AcK)GF = target: T12, QNle(AcK)GF
T12 chain: QLKGF

QP(AcK)QI = target: T13, QP(AcK)QI
T13 chain: QPKQI

[9] = target: T14, Ser-Asp-AcLys-Tyr-His (SIRT1 library hit, on bead)
T14 chain: SDKYHXXRM

[10] = target: T15, Ser-Tyr-AcLys-Gln-Trp (SIRT1 library hit, on bead)
T15 chain: SYKQWXXRM

[11] = target: T16, Thr-Glu-AcLys-Gln-Glu (SIRT1 library hit, on bead)
T16 chain: TEKQEXXRM

[12] = target: T17, Thr-Pro-AcLys-Asn-Ala (SIRT1 library hit, on bead)
T17 chain: TPKNAXXRM

[13] = target: T18, Trp-Gly-AcLys-Ser-Pro (SIRT1 library hit, on bead)
T18 chain: WGKSPXXRM

[14] = target: T19, Trp-His-AcLys-Phe-Gln (SIRT1 library hit, on bead) (not fully specified)
T19 chain: WHKFQXXRM

[15] = target: T20, Trp-His-AcLys-Phe-Glu (SIRT1 library hit, on bead) (not fully specified)
T20 chain: WHKFEXXRM

[16] = target: T21, Trp-Pro-AcLys-Trp-Gln (SIRT1 library hit, on bead) (not fully specified)
T21 chain: WPKWQXXRM

[17] = target: T22, Trp-Trp-AcLys-His-Gly (SIRT1 library hit, on bead) (not fully specified)
T22 chain: WWKHGXXRM

VQ(AcK)II = target: T23, VQ(AcK)II
T23 chain: VQKII

[18] = target: T24, Val-Gln-AcLys-Ile-Ile (SIRT1 library hit, on bead) (not fully specified)
T24 chain: VQKIIXXRM

WH(AcK)FQ = target: T25, WH(AcK)FQ
T25 chain: WHKFQ

WH(AcK)QQ = target: T26, WH(AcK)QQ
T26 chain: WHKQQ

WP(AcK)QQ = target: T27, WP(AcK)QQ
T27 chain: WPKQQ

B1: human NAD+-dependent deacetylase SIRT1 (protein)
chain: MADEAALALQPGGSPSAAGADREAASSPAGEPLRKRPRRDGPGLERSPGEPGGAAPEREVPAAARGCPGAAAAALWREAEAEAAAAGGEQEAQATAAAGEGDNGPGLQGPSREPPLADNLYDEDDDDEGEEEEEAAAAAIGYRDNLLFGDEIITNGFHSCESDEEDRASHASSSDWTPRPRIGPYTFVQQHLMIGTDPRTILKDLLPETIPPPELDDMTLWQIVINILSEPPKRKKRKDINTIEDAVKLLQECKKIIVLTGAGVSVSCGIPDFRSRDGIYARLAVDFPDLPDPQAMFDIEYFRKDPRPFFKFAKEIYPGQFQPSLCHKFIALSDKEGKLLRNYTQNIDTLEQVAGIQRIIQCHGSFATASCLICKYKVDCEAVRGDIFNQVVPRCPRCPADEPLAIMKPEIVFFGENLPEQFHRAMKYDKDEVDLLIVIGSSLKVRPVALIPSSIPHEVPQILINREPLPHLHFDVELLGDCDVIINELCHRLGGEYAKLCCNPVKLSEITEKPPRTQKELAYLSELPPTPLHVSEDSSSPERTSPPDSSVIVTLLDQAAKSNDDLDVSESKGCMEEKPQEVQTSRNVESIAEQMENPDLKNVGSSTGEKNERTSVAGTVRKCWPNRVAKEQISRRLDGNQYLFLPPNRYIFHGAEVYSDSEDDVLSSSSCGSNSDSGTCQSPSLEEPMEDESEIEEFYNGLEDEPDVPERAGGAGFGTDGDDQEAINEAISVKQEVTDMNYPSNKS
on-bead deacetylation, biotin and streptavidin quantum dot fluorescence, among the 45 brightest beads [1]: hits from the SIRT1 combinatorial library screen
on-bead deacetylation, biotin and streptavidin quantum dot fluorescence, among the 45 brightest beads [2]: hits from the SIRT1 combinatorial library screen
on-bead deacetylation, biotin and streptavidin quantum dot fluorescence, among the 45 brightest beads [3]: hits from the SIRT1 combinatorial library screen
kcat/Km (Me2RP(AcK)QF): 0.0147 M⁻¹ s⁻¹
kcat/Km (Me2RP(AcK)SI): 8360 M⁻¹ s⁻¹
kcat/Km (NH(AcK)II): 3630 M⁻¹ s⁻¹
on-bead deacetylation, biotin and streptavidin quantum dot fluorescence, among the 45 brightest beads [4]: hits from the SIRT1 combinatorial library screen
on-bead deacetylation, biotin and streptavidin quantum dot fluorescence, among the 45 brightest beads [5]: hits from the SIRT1 combinatorial library screen
on-bead deacetylation, biotin and streptavidin quantum dot fluorescence, among the 45 brightest beads [6]: hits from the SIRT1 combinatorial library screen
on-bead deacetylation, biotin and streptavidin quantum dot fluorescence, among the 45 brightest beads [7]: hits from the SIRT1 combinatorial library screen
on-bead deacetylation, biotin and streptavidin quantum dot fluorescence, among the 45 brightest beads [8]: hits from the SIRT1 combinatorial library screen
kcat/Km (QNle(AcK)GF): 0.00237 M⁻¹ s⁻¹
fold preference in catalytic activity over WP(AcK)QQ (QP(AcK)QI): QP(AcK)QI is favored over WP(AcK)QQ by 18-fold
kcat/Km (QP(AcK)QI): 0.0272 M⁻¹ s⁻¹
on-bead deacetylation, biotin and streptavidin quantum dot fluorescence, among the 45 brightest beads [9]: hits from the SIRT1 combinatorial library screen
on-bead deacetylation, biotin and streptavidin quantum dot fluorescence, among the 45 brightest beads [10]: hits from the SIRT1 combinatorial library screen
on-bead deacetylation, biotin and streptavidin quantum dot fluorescence, among the 45 brightest beads [11]: hits from the SIRT1 combinatorial library screen
on-bead deacetylation, biotin and streptavidin quantum dot fluorescence, among the 45 brightest beads [12]: hits from the SIRT1 combinatorial library screen
on-bead deacetylation, biotin and streptavidin quantum dot fluorescence, among the 45 brightest beads [13]: hits from the SIRT1 combinatorial library screen
on-bead deacetylation, biotin and streptavidin quantum dot fluorescence, among the 45 brightest beads [14]: hits from the SIRT1 combinatorial library screen
on-bead deacetylation, biotin and streptavidin quantum dot fluorescence, among the 45 brightest beads [15]: hits from the SIRT1 combinatorial library screen
on-bead deacetylation, biotin and streptavidin quantum dot fluorescence, among the 45 brightest beads [16]: hits from the SIRT1 combinatorial library screen
on-bead deacetylation, biotin and streptavidin quantum dot fluorescence, among the 45 brightest beads [17]: hits from the SIRT1 combinatorial library screen
kcat/Km (VQ(AcK)II): ≥ 2470 M⁻¹ s⁻¹
on-bead deacetylation, biotin and streptavidin quantum dot fluorescence, among the 45 brightest beads [18]: hits from the SIRT1 combinatorial library screen
kcat/Km (WH(AcK)FQ): 3290 M⁻¹ s⁻¹
fold difference in catalytic activity against WP(AcK)QQ (WH(AcK)QQ): 7 fold
kcat/Km (WH(AcK)QQ): 0.00723 M⁻¹ s⁻¹
kcat/Km (WP(AcK)QQ): 0.00154 M⁻¹ s⁻¹
